Results on 6 compounds are retold here after patent US12703730B2, “Long-acting conjugates of GLP-2 derivatives” (HANMI PHARM. CO., LTD., priority 2017, dated 2026).

One data set concerns the target T1, human GLP-2 receptor (Homo sapiens, UniProt O95838).
T1 construct: host or cells: CHO-K1
T1 sequence (O95838 1-553): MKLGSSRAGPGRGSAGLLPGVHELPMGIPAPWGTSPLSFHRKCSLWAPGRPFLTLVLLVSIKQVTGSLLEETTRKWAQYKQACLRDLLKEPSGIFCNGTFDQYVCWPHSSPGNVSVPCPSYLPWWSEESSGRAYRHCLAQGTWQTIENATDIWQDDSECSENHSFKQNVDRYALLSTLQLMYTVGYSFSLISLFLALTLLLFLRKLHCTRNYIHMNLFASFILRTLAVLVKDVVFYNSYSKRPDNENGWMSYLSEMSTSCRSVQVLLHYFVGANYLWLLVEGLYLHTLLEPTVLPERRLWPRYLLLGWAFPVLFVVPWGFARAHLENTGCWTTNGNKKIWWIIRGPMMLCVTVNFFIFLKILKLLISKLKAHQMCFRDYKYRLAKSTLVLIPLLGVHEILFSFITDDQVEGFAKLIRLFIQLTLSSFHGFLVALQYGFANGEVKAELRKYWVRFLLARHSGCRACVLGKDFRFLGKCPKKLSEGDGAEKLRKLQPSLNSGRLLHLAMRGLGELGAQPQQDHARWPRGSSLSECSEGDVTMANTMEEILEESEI
The experiment in a line: In vitro activity: cAMP accumulation (LANCE cAMP kit) in CHO-K1 cells expressing human GLP-2 receptor. The class given is cell-based. As to conditions: for In vitro activity compared to human GLP-2 (%) (relative titer), GLP-2 derivative: GLP-2 derivative / Teduglutide. An excerpt: In order to measure the activities of the GLP-2 derivatives and the long-acting conjugates of GLP-2 derivatives, which had been obtained in the previous Examples, a cell line in which a GLP-2 receptor is transformed was used to measure the cell activity in vitro. The cell line is one that has been transformed to express a human GLP-2 receptor in Chinese hamster ovary (CHO)—K1, and thus is suitable for measuring the activity of GLP-2 (DiscoverX, U.S.A.).
In order to measure the activities of the GLP-2 derivatives and the long-acting conjugates thereof, human GLP-2 and Teduglutide (Gattex®, Shire) were subjected to a 3-fold serial dilution from 166.7 nM to 0.0028 nM; the GLP-2 derivatives were subjected to a 3-fold serial dilution from 500 nM to 0.0085 nM; and the long-acting conjugates of GLP-2 derivatives were subjected to a 3-fold serial dilution from 3000 nM to 0.0508 nM. The culture solution was removed from the cultured CHO-K1 cells, in which the human GLP-2 receptor is expressed, and then each of the serially diluted material was added to the cells in an amount of 5 μL, respectively. Thereafter, the buffer (5 μL) containing a cAMP antibody was added and then the cultivation was conducted at room temperature for 15 minutes. Then, a detection mix (10 μL) containing a cell lysis buffer was added thereto to dissolve the cells and reacted at room temperature for 60 minutes. The cell lysates, upon completion of the reaction, were applied to a LANCE cAMP kit (PerkinElmer, U.S.A.) to calculate the EC50 value via accumulated cAMP, and the values were compared with one another.
On the technique in general: cAMP levels reflect the balance of adenylyl cyclase and phosphodiesterase activity.

Another data set has as its system C57BL/6 mice. The experiment in a line: Effect of increasing in vivo intestinal weight in normal mice (Example 7). Conditions: 13 days, Teduglutide 7.5 & 15 nmol/kg/BID, conjugate 4.15, 7.5, 15, 30 nmol/kg/Q2D. As for the experimental part: Five mice were placed in each group and autopsied after 13 days of the administrations. The small intestines were perfused, and the weight of the small intestines and the length of the villi within the small intestines were measured.

A further data set can be described thus: in vivo. Conditions: SD, rat, sc, 2.5 mg/kg.
The nature of data set [1]: Comparison of pharmacokinetics between long-acting conjugate of GLP-2 derivative and Teduglutide in SD rat (Example 6). Conditions: serum, sc, 2.5 mg/kg.
Method: 8-week-old normal rates were divided into a group administering Teduglutide (2.5 mg/kg) and a group administering the long-acting conjugate of CA GLP-2 RK (3.4K PEG) derivative (0.705 mg/kg). The test materials were subcutaneously injected once into the normal rats in each group (3 rats/group). Thereafter, whole blood was obtained by collecting blood samples from the coccygeal vein at 0.25, 0.5, 1, 1.5, 2, 3, 4, 6, 8, and 24 hours for the group administering Teduglutide; and at 4, 8, 24, 48, 72, 96, 120, 144, 168, 192, 216, 240, 264, 288, 312, and 336 hours for the group administering the long-acting conjugate of CA GLP-2 RK derivative. The whole blood was placed in a 1.5 mL microtube, centrifuged at room temperature at 5,000 rpm for 10 minutes, and then sera were separated and stored at −20° C. Concentrations of the stored sera from each group were quantified using an ELISA analysis method. For Teduglutide, a GLP-2 ELISA Kit (Alpco, #48-GP2HU-E01.1) was used. For the long-acting conjugate of CA GLP-2 RK derivative, a biotin-labeled GLP-2 polyclonal antibody (Phoenix Pharmaceuticals, #B-028-14) was bound to a plate coated with Streptavidin (Roche, #11645692001), and then reacted with the serum for 1 hour. After washing, anti-human IgG4-HPR (Alpha Diagnosis, #10124) was added thereto and allowed to react at room temperature for 1 hour. Thereafter, the resultants were subjected to a color reaction using a TMB reagent, and the absorbance was measured at a wavelength of 450 nm. Pharmacokinetic parameters thereof were calculated using the serum concentrations.
For data set [2] the following is noted: inactivation by DPP IV; Bolette H. et al. 2000; cited from earlier work.
Data set [3] is described as follows: Pharmacokinetics of long-acting conjugates of GLP-2 derivatives in SD rat (Example 5). As to conditions: normal SD rats, single subcutaneous injection 2.52 mg/kg, serum, ELISA. Type of data set: in vivo. How it is done:
The pharmacokinetics of the long-acting conjugates of GLP-2 derivatives were compared in normal rats.
Pharmacokinetic parameters thereof were calculated using the serum concentrations.
(In general: In an ELISA, binding on a coated surface is turned into a signal by an enzyme label.)

The mark [4] stands for this setting: relative titer from cAMP EC50, CHO-K1 cells expressing human GLP-2 receptor.

Square brackets hold non-standard residues; d marks the D form. Side chains are listed from the residue outwards. Ends that are not written are not given here. * marks the point of attachment. Acetyl(2-(4-imidazolyl)) = O=C(Cc1c[nH]cn1)*

Broadly, the AUC(0-t) is the area under the concentration-time curve up to a stated or last time point. Higher therefore signals more exposure. Usually Cmax stands for the peak of the concentration-time curve. The term MRT last denotes a mean duration of stay, worked out from the concentration-time curve. For orientation: Tmax means the time at which the peak concentration occurs. What is called half-life is the time in which the quantity being followed falls by half. A low value points to fast loss.

Take `CC[C@H](C)[C@H](NC(=O)[C@H](Cc1ccccc1)NC(=O)[C@H](CC(=O)O)NC(=O)[C@H](CCCNC(=N)N)NC(=O)[C@H](C)NC(=O)[C@H](C)NC(=O)[C@H](CC(C)C)NC(=O)[C@H](CC(N)=O)NC(=O)[C@H](CC(=O)O)NC(=O)[C@H](CC(C)C)NC(=O)[C@@H](NC(=O)[C@@H](NC(=O)[C@H](CC(N)=O)NC(=O)[C@H](CCSC)NC(=O)[C@H](CCC(=O)O)NC(=O)[C@H](CC(=O)O)NC(=O)[C@H](CO)NC(=O)[C@H](Cc1ccccc1)NC(=O)[C@H](CO)NC(=O)CNC(=O)[C@H](CC(=O)O)NC(=O)CNC(=O)[C@@H](N)Cc1c[nH]cn1)[C@@H](C)O)[C@@H](C)CC)C(=O)N[C@@H](CC(N)=O)C(=O)N[C@@H](Cc1c[nH]c2ccccc12)C(=O)N[C@@H](CC(C)C)C(=O)N[C@H](C(=O)N[C@@H](CCC(N)=O)C(=O)N[C@H](C(=O)N[C@@H](CCCCN)C(=O)N[C@H](C(=O)N[C@H](C(=O)N[C@@H](CC(=O)O)C(=O)O)[C@@H](C)O)[C@@H](C)CC)[C@@H](C)O)[C@@H](C)CC` [Teduglutide]: the “In vitro activity compared to human GLP-2 (%) (relative titer), GLP-2 derivative” value at human GLP-2 receptor (setting [4]) was 147.5%. Further, in the data set on C57BL/6 mice, the “length of the villi within the small intestines” value is recorded as “increase in the length of the villi” and the “weight of the small intestines” value is listed as “increased in a dose-dependent manner”. In the data set “in vivo”, the AUC(0-t) is 2600 ± 581 ng·h/mL, the highest level (Cmax) was 1680 ± 744 ng/mL, the MRT last worked out at 1.4 ± 0.1 h and the Tmax was determined as 42 ± 18 min. The half-life in data set [1] is 36 ± 6 min.
Regarding “CA GLP-2 KC: GLP-2 derivative SEQ ID NO: 2: X1 imidazoacetyldeshistidine, X2 glycine, X30 lysine, X34 cysteine (XGDGSFSDEMNTILDNLAARDFINWLIQTKITDC; X1 imidazoacetyldeshistidine; GLP-2 derivative; (1) Xaa is imidazoacetyldeshistidine)”, in the data set with human GLP-2 receptor (setting [4]), the “In vitro activity compared to human GLP-2 (%) (relative titer), GLP-2 derivative” value is listed as 149.3%.
The same measure, in the same setting: in the case of “CA GLP-2 KK: GLP-2 derivative SEQ ID NO: 3: X1 imidazoacetyldeshistidine, X2 glycine, X30 lysine, X34 lysine (XGDGSFSDEMNTILDNLAARDFINWLIQTKITDK; X1 imidazoacetyldeshistidine; GLP-2 derivative; (1) Xaa is imidazoacetyldeshistidine)” it was 205.6%; in that of “CA GLP-2 RK: GLP-2 derivative SEQ ID NO: 4: X1 imidazoacetyldeshistidine, X2 glycine, X30 arginine, X34 lysine ([Acetyl(2-(4-imidazolyl))]GDGSFSDEMNTILDNLAARDFINWLIQTRITDK)”, 333.2%.
As for Glucagon-like peptide-2 [GLP-2], the in vivo half-life in data set [2] is no more than 7 min.
Turning to “Long-acting conjugate of CA GLP-2 RC (10K PEG) derivative: CA-GLP-2 RC covalently linked to the immunoglobulin Fc by 10 kDa PEG at the 34th cysteine ([Acetyl(2-(4-imidazolyl))]GDGSFSDEMNTILDNLAARDFINWLIQTRITDC([PEG 10 kDa-immunoglobulin Fc]); also: Cys34 linked via 10 kDa PEG to immunoglobulin Fc)”, the “Activation of the GLP-2 receptor / relative potency (in words)” value with human GLP-2 receptor (CHO-K1 cells expressing human GLP-2 receptor, cAMP) is on record as “higher activities compared to the long-acting conjugate of GLP-2 derivative (CA GLP-2 KC)”. Moreover, in the data set with human GLP-2 receptor (relative titer from cAMP EC50, CHO-K1 cells expressing human GLP-2 receptor, long-acting conjugates), the “In vitro activity compared to human GLP-2 (%) (relative titer), conjugate of GLP-2 derivative” value was 46.0%. In data set [3], this compound displayed an AUClast of 1384.9499 ± 186.8176 µg·h/mL, a Cmax of 13350.4 ± 3611.4 ng/mL, an MRTlast of 88.9 ± 9.4 h and a T1/2 of 54.4 ± 6.9 h. Moreover, in data set [3], the Tmax was 26.7 ± 20.1 h.
